T1: recombinant human haptoglobin β subunit (human, UniProt P00738 162-406)
T1 sequence (looked up): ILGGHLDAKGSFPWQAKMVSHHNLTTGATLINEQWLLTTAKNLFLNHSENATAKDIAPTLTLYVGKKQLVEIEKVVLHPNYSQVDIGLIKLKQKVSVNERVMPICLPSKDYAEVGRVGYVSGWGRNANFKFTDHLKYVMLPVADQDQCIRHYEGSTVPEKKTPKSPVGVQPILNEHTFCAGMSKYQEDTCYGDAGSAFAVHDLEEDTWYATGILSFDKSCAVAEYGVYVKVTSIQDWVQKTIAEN

T2: native human haptoglobin β subunit (human, UniProt P00738 162-406)
T2 sequence (looked up): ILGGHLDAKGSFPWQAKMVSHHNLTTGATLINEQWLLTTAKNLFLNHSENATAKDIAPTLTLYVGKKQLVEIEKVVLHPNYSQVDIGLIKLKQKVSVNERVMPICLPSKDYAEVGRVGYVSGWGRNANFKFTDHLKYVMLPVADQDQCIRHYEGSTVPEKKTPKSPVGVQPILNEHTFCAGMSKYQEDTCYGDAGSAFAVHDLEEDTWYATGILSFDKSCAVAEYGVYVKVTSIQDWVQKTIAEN


Key:
Assay in all cases: SPR
[1] = target: T1, recombinant human haptoglobin β subunit
[2] = target: T2, native human haptoglobin β subunit
[3] = target: recombinant human CD163 protein (human, UniProt Q86VB7-1 42-1050)
recombinant human CD163 protein, sequence (Q86VB7 42-1050): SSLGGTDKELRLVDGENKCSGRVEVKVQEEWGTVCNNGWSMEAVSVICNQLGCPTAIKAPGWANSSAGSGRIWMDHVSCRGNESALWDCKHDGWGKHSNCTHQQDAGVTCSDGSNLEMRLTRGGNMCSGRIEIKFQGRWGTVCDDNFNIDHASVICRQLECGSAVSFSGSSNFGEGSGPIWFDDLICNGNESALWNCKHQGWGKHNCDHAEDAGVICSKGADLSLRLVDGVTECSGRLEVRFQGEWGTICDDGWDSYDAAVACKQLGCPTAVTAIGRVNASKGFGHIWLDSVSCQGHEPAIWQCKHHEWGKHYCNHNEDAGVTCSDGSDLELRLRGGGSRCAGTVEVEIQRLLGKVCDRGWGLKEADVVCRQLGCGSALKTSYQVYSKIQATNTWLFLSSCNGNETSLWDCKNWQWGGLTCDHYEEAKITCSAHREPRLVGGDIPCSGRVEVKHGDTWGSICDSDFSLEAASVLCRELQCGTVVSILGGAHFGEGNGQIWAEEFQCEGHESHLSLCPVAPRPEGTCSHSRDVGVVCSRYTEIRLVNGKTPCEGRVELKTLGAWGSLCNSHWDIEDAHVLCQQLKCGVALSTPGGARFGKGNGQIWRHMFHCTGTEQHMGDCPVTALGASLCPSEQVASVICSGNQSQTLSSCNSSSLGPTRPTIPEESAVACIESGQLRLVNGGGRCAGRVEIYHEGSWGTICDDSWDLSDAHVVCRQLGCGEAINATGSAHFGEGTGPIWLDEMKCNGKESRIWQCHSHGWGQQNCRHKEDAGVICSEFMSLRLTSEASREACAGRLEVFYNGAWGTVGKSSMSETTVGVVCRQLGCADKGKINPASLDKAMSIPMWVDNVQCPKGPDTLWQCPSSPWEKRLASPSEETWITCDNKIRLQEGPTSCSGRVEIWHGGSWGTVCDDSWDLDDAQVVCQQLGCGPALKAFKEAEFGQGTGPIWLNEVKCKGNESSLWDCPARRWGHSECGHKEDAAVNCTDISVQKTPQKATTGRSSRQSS

Kd [1] [nM]	Kd [2] [nM]	Kd [3] [nM]	Binder
29	30		recombinant disulfide HMGB1 (natural protein, UniProt P09429 1-215, looked up, disulfide redox form (cysteines not named)) MGKGDPKKPRGKMSSYAFFVQTCREEHKKKHPDASVNFSEFSKKCSERWKTMSAKEKGKFEDMAKADKARYEREMKTYIPPKGETKKKFKDPNAPKRPPSAFFLFCSEYRPKIKGEHPGLSIGDVAKKLGEMWNNTAADDKQPYEKKAAKLKEKYEKDIAAYRAKGKPDAAKKGVVKAEKSKKKKEEEEDEEDEEDEEEEEDEEDEDEEEDDDDE
		70	HMGB1-haptoglobin β complexes (1:1 molar ratio) (complex) chain 1: MGKGDPKKPRGKMSSYAFFVQTCREEHKKKHPDASVNFSEFSKKCSERWKTMSAKEKGKFEDMAKADKARYEREMKTYIPPKGETKKKFKDPNAPKRPPSAFFLFCSEYRPKIKGEHPGLSIGDVAKKLGEMWNNTAADDKQPYEKKAAKLKEKYEKDIAAYRAKGKPDAAKKGVVKAEKSKKKKEEEEDEEDEEDEEEEEDEEDEDEEEDDDDE chain 2: ILGGHLDAKGSFPWQAKMVSHHNLTTGATLINEQWLLTTAKNLFLNHSENATAKDIAPTLTLYVGKKQLVEIEKVVLHPNYSQVDIGLIKLKQKVSVNERVMPICLPSKDYAEVGRVGYVSGWGRNANFKFTDHLKYVMLPVADQDQCIRHYEGSTVPEKKTPKSPVGVQPILNEHTFCAGMSKYQEDTCYGDAGSAFAVHDLEEDTWYATGILSFDKSCAVAEYGVYVKVTSIQDWVQKTIAEN

— PMC5477782 (Journal of internal medicine, 2017)
